Experimental findings from paper PMC9300613 (2022) are described below.

For the experiment, the target named is bovine brain αβ-tubulin (taxol-stabilised microtubules, dolastatin-induced rings or DARPin-capped free dimer … (bovine, UniProt Q6B856 1-445)). The experiment in a line: AMPPNP.
Chain of bovine brain αβ-tubulin (taxol-stabilised microtubules, dolastatin-induced rings or DARPin-capped free dimer … (chain, as listed by the source, chain 1 of 2): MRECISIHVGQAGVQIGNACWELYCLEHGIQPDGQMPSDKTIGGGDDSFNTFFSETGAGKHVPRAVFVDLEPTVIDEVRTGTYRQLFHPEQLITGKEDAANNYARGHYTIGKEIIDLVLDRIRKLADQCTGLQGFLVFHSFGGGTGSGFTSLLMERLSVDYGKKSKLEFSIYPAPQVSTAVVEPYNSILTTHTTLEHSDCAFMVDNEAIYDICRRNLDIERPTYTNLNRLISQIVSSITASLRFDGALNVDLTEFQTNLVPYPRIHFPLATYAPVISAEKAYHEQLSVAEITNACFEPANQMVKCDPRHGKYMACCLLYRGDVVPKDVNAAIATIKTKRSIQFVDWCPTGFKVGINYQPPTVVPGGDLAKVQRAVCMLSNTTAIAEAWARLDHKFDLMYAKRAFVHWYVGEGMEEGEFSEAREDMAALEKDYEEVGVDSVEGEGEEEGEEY
Chain of bovine brain αβ-tubulin (taxol-stabilised microtubules, dolastatin-induced rings or DARPin-capped free dimer … (Q6B856 whole entry, chain 2 of 2): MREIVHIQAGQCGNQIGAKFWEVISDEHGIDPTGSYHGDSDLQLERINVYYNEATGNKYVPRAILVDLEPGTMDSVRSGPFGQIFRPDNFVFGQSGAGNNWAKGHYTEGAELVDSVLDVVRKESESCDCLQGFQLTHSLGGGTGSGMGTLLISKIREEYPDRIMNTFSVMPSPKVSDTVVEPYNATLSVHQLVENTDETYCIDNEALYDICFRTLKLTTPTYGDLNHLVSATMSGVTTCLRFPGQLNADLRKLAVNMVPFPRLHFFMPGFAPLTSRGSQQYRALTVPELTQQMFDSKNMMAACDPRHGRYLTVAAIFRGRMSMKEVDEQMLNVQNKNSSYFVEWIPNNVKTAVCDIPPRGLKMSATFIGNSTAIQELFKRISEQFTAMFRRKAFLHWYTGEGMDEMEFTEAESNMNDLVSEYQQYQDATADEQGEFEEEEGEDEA

B1: CaKip3-MDN (Candida albicans Kip3 motor domain and slightly truncated neck-linker, residues 1-436) (domain or fragment)
chain: MSYPNSLGSPATVTSTSVPTAKQSSISVAVRVRPFTEAESNRLVKIDNDDVFLGDGCLTSDNNNNNNNSNSNGNGNGNGSSAANSSGASTSRRAIFNTLGGLRKIINVVDDRMLIFDPPETNPLTKMQRNAFPNSFKGSRIREHRFVFDRLFDEDCTQDQVYRNTTQPLLDSVLDGYNATVFAYGATGCGKTHTISGTPEDPGVIFLTMKELYNRIEELKDTKIIDISLSYLEIYNETIRDLLNPMTQCKNLVIREDANNKISVSNLSRHRPNSVEEVMQLILEGNKNRTCSPTEANATSSRSHAVLQINVIQKDRTGDITEEHTFATLSIIDLAGSERAAATKNRGARLNEGANINKSLLALGNCINALCDPRRRNHVPYRDSKLTRLLKFSLGGNCKTVMIVCVSPSSQHYDETLNTLKYADRAKEIKTKLIRN
Regarding B1, the Kd came to 43 nM.

B2: HsKHC-MDN (human kinesin-1 heavy chain KIF5B construct equivalent to CaKip3-MDN) (domain or fragment)
chain: MADLAECNIKVMCRFRPLNESEVNRGDKYIAKFQGEDTVVIASKPYAFDRVFQSSTSQEQVYNDCAKKIVKDVLEGYNGTIFAYGQTSSGKTHTMEGKLHDPEGMGIIPRIVQDIFNYIYSMDENLEFHIKVSYFEIYLDKIRDLLDVSKTNLSVHEDKNRVPYVKGCTERFVCSPDEVMDTIDEGKSNRHVAVTNMNEHSSRSHSIFLINVKQENTQTEQKLSGKLYLVDLAGSEKVSKTGAEGAVLDEAKNINKSLSALGNVISALAEGSTYVPYRDSKMTRILQDSLGGNCRTTIVICCSPSSYNESETKSTLLFGQRAKTIKNTVCVN
As for B2, the Kd came to 350 nM.

The term Kd denotes the concentration at which binding is half-saturated. Lower therefore signals a tighter complex.
